*1 amine or outer side, *2 acyl side, *3 side chain or, on linkers, in order; H or OH if unused. Bridges are numbered along the chain shown (N, C = ends). Where no end group is shown, it is not given here. The star is where a group is joined. X2 = (S)‑4‑Carboxy‑4‑(19-carboxynonadecanoylamino)butyryl, O=C(O)CCCCCCCCCCCCCCCCCCC(=O)N[C@@H](CCC(=O)*)C(=O)O; C20 diacid = O=C(O)CCCCCCCCCCCCCCCCCCC(=O)*; C18 diacid = O=C(O)CCCCCCCCCCCCCCCCC(=O)*; γGlu = O=C(O)[C@H](CCC(=O)[*:2])N[*:1]; AEEA = NCCOCCOCC(=O)O
T1: Amylin 3(a) receptor (human calcitonin receptor (CTa) with RAMP-3) (human, UniProt P30988 25-474; O60896 24-148, limits assumed)
T1 sequence (looked up) 1: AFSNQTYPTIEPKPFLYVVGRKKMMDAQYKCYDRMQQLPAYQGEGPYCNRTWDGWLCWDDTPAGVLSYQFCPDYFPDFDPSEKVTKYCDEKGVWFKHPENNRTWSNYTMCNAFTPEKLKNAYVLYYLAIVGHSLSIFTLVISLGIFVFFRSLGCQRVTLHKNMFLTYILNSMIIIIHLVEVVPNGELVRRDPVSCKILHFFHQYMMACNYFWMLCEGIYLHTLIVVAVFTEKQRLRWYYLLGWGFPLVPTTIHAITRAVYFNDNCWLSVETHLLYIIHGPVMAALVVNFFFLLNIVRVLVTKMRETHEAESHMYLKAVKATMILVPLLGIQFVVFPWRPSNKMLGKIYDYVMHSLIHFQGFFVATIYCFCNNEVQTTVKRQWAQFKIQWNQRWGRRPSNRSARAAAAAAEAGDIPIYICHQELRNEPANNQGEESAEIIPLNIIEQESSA
T1 sequence (looked up) 2: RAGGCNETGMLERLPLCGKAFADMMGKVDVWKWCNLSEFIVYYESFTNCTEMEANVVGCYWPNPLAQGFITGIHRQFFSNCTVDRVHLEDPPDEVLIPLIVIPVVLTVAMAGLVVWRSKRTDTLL


These binders were tested against T1, Amylin 3(a) receptor (human calcitonin …) (assay: cell-based or functional assay).

| Binder | Potency Luciferase [pmol/L] |
| --- | --- |
| {C20 diacid-γGlu}-CNTATCATQRLANFLHHSSNNFGPILPPTNVGSNTY-NH2 (disulfide 1-6) [N-alpha-[(S)-4-Carboxy-4-(19-carboxynonadecanoylamino)butyryl]-[His17]-pramlintide (2-37)] | 100 |
| X2-ERECNTATCATQRLADFLHHSSQNFGAPLSSTNVGSNTY-NH2 (disulfide 4-9; SMILES CC(C)C[C@H](NC(=O)[C@H](CCCNC(=N)N)NC(=O)[C@H](CCC(N)=O)NC(=O)[C@@H](NC(=O)[C@H](C)NC(=O)[C@@H]1CSSC[C@H](NC(=O)[C@H](CCC(=O)O)NC(=O)[C@H](CCCNC(=N)N)NC(=O)[C@H](CCC(=O)O)NC(=O)CC[C@H](NC(=O)CCCCCCCCCCCCCCCCCCC(=O)O)C(=O)O)C(=O)N[C@@H](CC(N)=O)C(=O)N[C@@H]([C@@H](C)O)C(=O)N[C@@H](C)C(=O)N[C@@H]([C@@H](C)O)C(=O)N1)[C@@H](C)O)C(=O)N[C@@H](C)C(=O)N[C@@H](CC(=O)O)C(=O)N[C@@H](Cc1ccccc1)C(=O)N[C@@H](CC(C)C)C(=O)N[C@@H](Cc1c[nH]cn1)C(=O)N[C@@H](Cc1c[nH]cn1)C(=O)N[C@@H](CO)C(=O)N[C@@H](CO)C(=O)N[C@@H](CCC(N)=O)C(=O)N[C@@H](CC(N)=O)C(=O)N[C@@H](Cc1ccccc1)C(=O)NCC(=O)N[C@@H](C)C(=O)N1CCC[C@H]1C(=O)N[C@@H](CC(C)C)C(=O)N[C@@H](CO)C(=O)N[C@@H](CO)C(=O)N[C@H](C(=O)N[C@@H](CC(N)=O)C(=O)N[C@H](C(=O)NCC(=O)N[C@@H](CO)C(=O)N[C@@H](CC(N)=O)C(=O)N[C@H](C(=O)N[C@@H](Cc1ccc(O)cc1)C(N)=O)[C@@H](C)O)C(C)C)[C@@H](C)O) | 60 |
| EECNTATCATQRLANFLHHSSNNFGPILPPTNVGSNTY-NH2 (disulfide 3-8; not fully specified (N-terminus); printed as N-alpha-[(S)-4-Carboxy-4-(19-carboxynonadecanoylamino)butyryl]-Glu-[Glu1,His17]-pramlintide) [N-alpha-[(S)-4-Carboxy-4-(19-carboxynonadecanoylamino)butyryl]-Glu-[Glu1,His17]-pramlintide] | 300 |
| HHCNTATCATQRLANFLHRSSNNFGPILPPTNVGSNTY-NH2 (disulfide 3-8; not fully specified (N-terminus); printed as N-alpha-[(S)-4-Carboxy-4-(19-carboxynonadecanoylamino)butyryl]-His-[His1,His17,Arg18]-pramlintide) [N-alpha-[(S)-4-Carboxy-4-(19-carboxynonadecanoylamino)butyryl]-His-[His1,His17,Arg18]-pramlintide] | 200 |
| EECNTATCATQRLANFLRHSSNNFGPILPPTNVGSNTY-NH2 (disulfide 3-8; not fully specified (N-terminus); printed as N-alpha-[(S)-4-Carboxy-4-(19-carboxynonadecanoylamino)butyryl]-Glu-[Glu1,Arg17]-pramlintide) [N-alpha-[(S)-4-Carboxy-4-(19-carboxynonadecanoylamino)butyryl]-Glu-[Glu1,Arg17]-pramlintide] | 300 |
| RCNTATCATQRLANFLHHSSNNFGPILPPTNVGSNTY-NH2 (disulfide 2-7; not fully specified (N-terminus); printed as N-alpha-[3-(2-{2-[2-(2-{2-[2-(2-{2-[(S)-4-Carboxy-4-(17-carboxyheptadecanoylamino) butyrylamino]ethoxy}ethoxy)ethoxy]ethoxy}ethoxy)ethoxy]ethoxy}ethoxy)propionylamino][Arg1,His17]-pramlintide) [N-alpha-[3-(2-{2-[2-(2-{2-[2-(2-{2-[(S)-4-Carboxy-4-(17-carboxyheptadecanoylamino) …] | 80 |
| {C18 diacid-γGlu-AEEA-AEEA}-RCNTATCATQRLANFLHHSSNNFGPILPPTNVGSNTY-NH2 (disulfide 2-7; SMILES CC[C@H](C)[C@H](NC(=O)[C@@H]1CCCN1C(=O)CNC(=O)[C@H](Cc1ccccc1)NC(=O)[C@H](CC(N)=O)NC(=O)[C@H](CC(N)=O)NC(=O)[C@H](CO)NC(=O)[C@H](CO)NC(=O)[C@H](Cc1c[nH]cn1)NC(=O)[C@H](Cc1c[nH]cn1)NC(=O)[C@H](CC(C)C)NC(=O)[C@H](Cc1ccccc1)NC(=O)[C@H](CC(N)=O)NC(=O)[C@H](C)NC(=O)[C@H](CC(C)C)NC(=O)[C@H](CCCNC(=N)N)NC(=O)[C@H](CCC(N)=O)NC(=O)[C@@H](NC(=O)[C@H](C)NC(=O)[C@@H]1CSSC[C@H](NC(=O)[C@H](CCCNC(=N)N)NC(=O)COCCOCCNC(=O)COCCOCCNC(=O)CC[C@H](NC(=O)CCCCCCCCCCCCCCCCC(=O)O)C(=O)O)C(=O)N[C@@H](CC(N)=O)C(=O)N[C@@H]([C@@H](C)O)C(=O)N[C@@H](C)C(=O)N[C@@H]([C@@H](C)O)C(=O)N1)[C@@H](C)O)C(=O)N[C@@H](CC(C)C)C(=O)N1CCC[C@H]1C(=O)N1CCC[C@H]1C(=O)N[C@H](C(=O)N[C@@H](CC(N)=O)C(=O)N[C@H](C(=O)NCC(=O)N[C@@H](CO)C(=O)N[C@@H](CC(N)=O)C(=O)N[C@H](C(=O)N[C@@H](Cc1ccc(O)cc1)C(N)=O)[C@@H](C)O)C(C)C)[C@@H](C)O) | 30 |
| X2-ERECNTATCATQRLANFLRHSSNNFGAPLSSTNVGSNTY-NH2 (disulfide 4-9; SMILES CC(C)C[C@H](NC(=O)[C@H](CCCNC(=N)N)NC(=O)[C@H](CCC(N)=O)NC(=O)[C@@H](NC(=O)[C@H](C)NC(=O)[C@@H]1CSSC[C@H](NC(=O)[C@H](CCC(=O)O)NC(=O)[C@H](CCCNC(=N)N)NC(=O)[C@H](CCC(=O)O)NC(=O)CC[C@H](NC(=O)CCCCCCCCCCCCCCCCCCC(=O)O)C(=O)O)C(=O)N[C@@H](CC(N)=O)C(=O)N[C@@H]([C@@H](C)O)C(=O)N[C@@H](C)C(=O)N[C@@H]([C@@H](C)O)C(=O)N1)[C@@H](C)O)C(=O)N[C@@H](C)C(=O)N[C@@H](CC(N)=O)C(=O)N[C@@H](Cc1ccccc1)C(=O)N[C@@H](CC(C)C)C(=O)N[C@@H](CCCNC(=N)N)C(=O)N[C@@H](Cc1c[nH]cn1)C(=O)N[C@@H](CO)C(=O)N[C@@H](CO)C(=O)N[C@@H](CC(N)=O)C(=O)N[C@@H](CC(N)=O)C(=O)N[C@@H](Cc1ccccc1)C(=O)NCC(=O)N[C@@H](C)C(=O)N1CCC[C@H]1C(=O)N[C@@H](CC(C)C)C(=O)N[C@@H](CO)C(=O)N[C@@H](CO)C(=O)N[C@H](C(=O)N[C@@H](CC(N)=O)C(=O)N[C@H](C(=O)NCC(=O)N[C@@H](CO)C(=O)N[C@@H](CC(N)=O)C(=O)N[C@H](C(=O)N[C@@H](Cc1ccc(O)cc1)C(N)=O)[C@@H](C)O)C(C)C)[C@@H](C)O) | 200 |
| {C20 diacid-γGlu}-CNTATCATQRLANFLHHSSNNFEPILPPTNVGSNTY-NH2 (disulfide 1-6; SMILES CC[C@H](C)[C@H](NC(=O)[C@@H]1CCCN1C(=O)[C@H](CCC(=O)O)NC(=O)[C@H](Cc1ccccc1)NC(=O)[C@H](CC(N)=O)NC(=O)[C@H](CC(N)=O)NC(=O)[C@H](CO)NC(=O)[C@H](CO)NC(=O)[C@H](Cc1c[nH]cn1)NC(=O)[C@H](Cc1c[nH]cn1)NC(=O)[C@H](CC(C)C)NC(=O)[C@H](Cc1ccccc1)NC(=O)[C@H](CC(N)=O)NC(=O)[C@H](C)NC(=O)[C@H](CC(C)C)NC(=O)[C@H](CCCNC(=N)N)NC(=O)[C@H](CCC(N)=O)NC(=O)[C@@H](NC(=O)[C@H](C)NC(=O)[C@@H]1CSSC[C@H](NC(=O)CC[C@H](NC(=O)CCCCCCCCCCCCCCCCCCC(=O)O)C(=O)O)C(=O)N[C@@H](CC(N)=O)C(=O)N[C@@H]([C@@H](C)O)C(=O)N[C@@H](C)C(=O)N[C@@H]([C@@H](C)O)C(=O)N1)[C@@H](C)O)C(=O)N[C@@H](CC(C)C)C(=O)N1CCC[C@H]1C(=O)N1CCC[C@H]1C(=O)N[C@H](C(=O)N[C@@H](CC(N)=O)C(=O)N[C@H](C(=O)NCC(=O)N[C@@H](CO)C(=O)N[C@@H](CC(N)=O)C(=O)N[C@H](C(=O)N[C@@H](Cc1ccc(O)cc1)C(N)=O)[C@@H](C)O)C(C)C)[C@@H](C)O) [N-alpha-[(S)-4-Carboxy-4-(19-carboxynonadecanoylamino)butyryl]-[His17,Glu24]-pramlintide (2-37)] | 100 |
| {C20 diacid-γGlu}-ECNTATCATQRLANFLHHSSNNFGPILPPTNVGSNTY-NH2 (disulfide 2-7; SMILES CC[C@H](C)[C@H](NC(=O)[C@@H]1CCCN1C(=O)CNC(=O)[C@H](Cc1ccccc1)NC(=O)[C@H](CC(N)=O)NC(=O)[C@H](CC(N)=O)NC(=O)[C@H](CO)NC(=O)[C@H](CO)NC(=O)[C@H](Cc1c[nH]cn1)NC(=O)[C@H](Cc1c[nH]cn1)NC(=O)[C@H](CC(C)C)NC(=O)[C@H](Cc1ccccc1)NC(=O)[C@H](CC(N)=O)NC(=O)[C@H](C)NC(=O)[C@H](CC(C)C)NC(=O)[C@H](CCCNC(=N)N)NC(=O)[C@H](CCC(N)=O)NC(=O)[C@@H](NC(=O)[C@H](C)NC(=O)[C@@H]1CSSC[C@H](NC(=O)[C@H](CCC(=O)O)NC(=O)CC[C@H](NC(=O)CCCCCCCCCCCCCCCCCCC(=O)O)C(=O)O)C(=O)N[C@@H](CC(N)=O)C(=O)N[C@@H]([C@@H](C)O)C(=O)N[C@@H](C)C(=O)N[C@@H]([C@@H](C)O)C(=O)N1)[C@@H](C)O)C(=O)N[C@@H](CC(C)C)C(=O)N1CCC[C@H]1C(=O)N1CCC[C@H]1C(=O)N[C@H](C(=O)N[C@@H](CC(N)=O)C(=O)N[C@H](C(=O)NCC(=O)N[C@@H](CO)C(=O)N[C@@H](CC(N)=O)C(=O)N[C@H](C(=O)N[C@@H](Cc1ccc(O)cc1)C(N)=O)[C@@H](C)O)C(C)C)[C@@H](C)O) [N-alpha-[(S)-4-Carboxy-4-(19-carboxynonadecanoylamino)butyryl]-[Glu 1,His17]-pramlintide] | 200 |
